{"source": "patent US6710030B1", "about": "“Contortrostain (CN) and methods for its use in preventing metastasis and other conditions” (University of Southern California, priority 1993, dated 2004)", "molecules": {"B1": {"name": "contortrostatin (protein)", "chain": "DAPANPCCDAATCKLTTGSQCADGLCCDQCKFMKEGTVCRRARGDDLDDYCNGISAGCPRNPFHA"}}, "key": {"[1]": {"tested_on": "MDA-MB-435 tumor on CAM", "assay": "MDA-MB-435 tumor induced angiogenesis on chick embryo chorioallantoic membrane (CAM)", "assay_type": "in vivo", "protocol": "MDA-MB-435 tumor masses were inoculated on CAM of 10-day chick embryos. CN at various dosages were injected intravenously into CAM on day 2 post-inoculation. […] Chick embryo is immunodeficient, and thus allows the growth of implanted MDA-MB-435 tumor. The embryos are incubated at 37° C. with humidity at 60%. CN at various dosages was injected intravenously into CAM on day 2 post-inoculation. […] On the top (FIG. 16A) is the control embryo. The vessels are distributed in a convergent manner with the tumor mass in the center. In the middle (FIG. 16B) is the CAM treated with 20 μg of CN. On the bottom (FIG. 16C) is the CAM treated by 150 μg of CN."}, "[2]": {"tested_on": "MDA-MB-435 cells", "assay": "Invasion of MDA-MB-435 cells through Matrigel-coated invasion chamber", "assay_type": "cell-based, human", "details": "48 hrs", "protocol": "2.5×10^3 MDA-MB-435 cells treated with various concentration of CN were allowed to migrate across the Matrigel layer for 48 hrs. Assays at each CN concentration were performed in triplicate. Cells invaded through the Matrigel filter were fixed and stained. Invaded cells were quantitated with microscope by the mean of cell numbers in three randomly selected vision field."}, "[3]": {"tested_on": "αvβ3 293 cells", "assay": "Phosphotyrosine immunoblot, 293 cells expressing αvβ3", "assay_type": "cell-based, human", "details": "10 min", "protocol": "Cell culture, preparation and stimulation—T24 cells were maintained in RPMI 1640 medium containing 5% fetal bovine serum, and MDA-MB-435 and 293 cells were maintained in Dulbecco's modified Eagle's medium with 10% serum at 37° C. in 5% CO2. Cells were washed with phosphate-buffered saline (PBS) and starved in the appropriate serum-free medium for 6 h at 37° C. Cells were detached by brief treatment with 0.05% trypsin/0.02% EDTA in PBS and collected by centrifugation, resuspended in soybean trypsin inhibitor (1 mg/ml in serum-free medium), and washed in 2% bovine serum albumin/serum-free medium. Cells were maintained in suspension for 1 h in 2% bovine serum albumin/serum-free medium at 37° C. with end-over-end agitation. Quiescent cells (3×10^6/ml) were treated with disintegrins or other reagents while in suspension, or were allowed to adhere to Matrigel (Becton Dickinson, Bedford, Mass.) diluted 1:100 with serum-free medium during treatment. […]\nContortrostatin- induced signaling events are mediated by the αvβ3 integrin—The integrinbinding specificities of echistatin and flavoridin have been determined previously (Niewiarowski et al., supra; and Pfaff, M., McLane, M. A., Beviglia, L., Niewiarowski, S., and Timpl, R. (1994) Cell Adhesion and Communication 2, 491-501). […]"}, "[4]": {"tested_on": "MDA-MB-435 cells", "assay": "Adhesion of MDA-MB-435 cells to immobilized ECM proteins", "assay_type": "cell-based, human", "protocol": "The effect of CN on binding of highly metastatic human breast cancer cells, MDA-MB-435 cell line, to ECM proteins was examined. Human fibronectin and vitronectin were immobilized in the wells of 96-well microtiter plates. […] In a variation of the above experiments, CN was immobilized. […] Referring to FIGS. 12 and 13, varying concentrations of GRGDSP (FIG. 12) or EDTA (FIG. 13) were used to inhibit binding of human mammary carcinoma cells to immobilized CN. CN was at 0.1 μg/well. The vertical line at each data point indicates the y-axis error bar. All experiments were conducted as three sets of triplicates for each data point."}, "[5]": {"tested_on": "T24 cells", "assay": "Adhesion of T24 cells to immobilized vitronectin", "assay_type": "cell-based, human", "protocol": "Individual wells of 96-well plates were coated at 4° C. overnight with 100 μl of vitronectin (1 μg/well). Excess proteins were washed off with three washes of phosphate buffered saline (PBS), followed by blocking with 1% bovine serum albumin (BSA) in PBS. Aliquots (100 μl) of cells (5×10^5 cells/ml) were incubated at room temperature for 20 minutes with antibodies or contortrostatin before being applied to the coated wells. Treated cells were allowed to adhere to the wells for 30 minutes at 37° C. Unbound cells were washed off with serum-free medium. Cell adhesion was quantified either by CellTiter 96™ Aqueous Proliferation Assay kit (Promega, Madison, Wis.). Each inhibitor concentration was tested in triplicate, and assays were performed at least three times yielding identical results."}}, "note": "Entries after “also recorded” stand apart in the source; their conditions may differ. Read-outs that look alike come from different tables or passages of the source."}
{"molecule": "B1", "values": [{"measurement": "tumor mass on CAM", "setting": "[1]; 20 μg of CN", "result": "smaller than that on control CAM"}, {"measurement": "tumor induced angiogenesis (vessels)", "setting": "[1]; 20 μg of CN intravenously", "result": "thinner and less dense than control"}, {"measurement": "tumor mass on CAM", "setting": "[1]; 150 μg of CN", "result": "necrotic tumor mass with volume significantly smaller than control and low dose CN"}, {"measurement": "tumor induced angiogenesis (vessels)", "setting": "[1]; 150 μg of CN intravenously", "result": "the vessels are even thinner and the convergent distribution pattern disappears completely"}, {"measurement": "invasion of synthetic basement membrane by MDA-MB-435 cells", "setting": "[2]", "result": "inhibitory effect"}, {"measurement": "tyrosine phosphorylation", "setting": "[3]", "result": "robust induction of tyrosine phosphorylation; also recorded: increased tyrosine phosphorylation"}, {"measurement": "effect on adhesion to human or rat type I collagen", "setting": "[4]", "result": "minimal effect"}, {"measurement": "IC50", "setting": "[4]; immobilized human fibronectin, read-out: IC50 for adhesion to fibronectin", "result": 18, "unit": "nM"}, {"measurement": "IC50", "setting": "[4]; immobilized human vitronectin, read-out: IC50 for adhesion to vitronectin", "result": 1.5, "unit": "nM"}, {"measurement": "adhesion of T24 cells to vitronectin, in words", "setting": "[5]; FIG. 19 A, B", "result": "inhibits adhesion of T24 completely"}, {"measurement": "inhibition of adhesion of T24 cells to vitronectin", "setting": "[5]; at a concentration less than 10 μg/ml", "result": 100, "unit": "%"}]}
